B1: H183/L072 VL A25L (antibody, name in Kabat numbering, V domains shown)
VH: QVQLVESGGGLVQPGRSLRLSCAASGFTFSNAWMHWVRQAPGKGLEWVAQIKDKGNAYAAYYAPSVKGRFTISRDDSKNSIYLQMNSLKTEDTAVYYCHYVHYASASTVLPAFGVDAWGQGTTVTVSS
VL: DIVMTQSPLSLPVTPGEPASISCQLSQELVHMNRNTYLHWYQQKPGQAPRLLIYKVSNRFPGVPDRFSGSGSGTDFTLKISRVEAEDVGVYYCAQGTSVPFTFGQGTKLEIK
notes: Dual-Ig
B2: H183/L072 VL A25T (antibody, name in Kabat numbering, V domains shown)
VH: QVQLVESGGGLVQPGRSLRLSCAASGFTFSNAWMHWVRQAPGKGLEWVAQIKDKGNAYAAYYAPSVKGRFTISRDDSKNSIYLQMNSLKTEDTAVYYCHYVHYASASTVLPAFGVDAWGQGTTVTVSS
VL: DIVMTQSPLSLPVTPGEPASISCQTSQELVHMNRNTYLHWYQQKPGQAPRLLIYKVSNRFPGVPDRFSGSGSGTDFTLKISRVEAEDVGVYYCAQGTSVPFTFGQGTKLEIK
notes: Dual-Ig
B3: H183/L072 VL A25P (antibody, name in Kabat numbering, V domains shown)
VH: QVQLVESGGGLVQPGRSLRLSCAASGFTFSNAWMHWVRQAPGKGLEWVAQIKDKGNAYAAYYAPSVKGRFTISRDDSKNSIYLQMNSLKTEDTAVYYCHYVHYASASTVLPAFGVDAWGQGTTVTVSS
VL: DIVMTQSPLSLPVTPGEPASISCQPSQELVHMNRNTYLHWYQQKPGQAPRLLIYKVSNRFPGVPDRFSGSGSGTDFTLKISRVEAEDVGVYYCAQGTSVPFTFGQGTKLEIK
notes: Dual-Ig
B4: H183/L072 VL A25S (antibody, name in Kabat numbering, V domains shown)
VH: QVQLVESGGGLVQPGRSLRLSCAASGFTFSNAWMHWVRQAPGKGLEWVAQIKDKGNAYAAYYAPSVKGRFTISRDDSKNSIYLQMNSLKTEDTAVYYCHYVHYASASTVLPAFGVDAWGQGTTVTVSS
VL: DIVMTQSPLSLPVTPGEPASISCQSSQELVHMNRNTYLHWYQQKPGQAPRLLIYKVSNRFPGVPDRFSGSGSGTDFTLKISRVEAEDVGVYYCAQGTSVPFTFGQGTKLEIK
notes: Dual-Ig
B5: H183/L072 VL A25M (antibody, name in Kabat numbering, V domains shown)
VH: QVQLVESGGGLVQPGRSLRLSCAASGFTFSNAWMHWVRQAPGKGLEWVAQIKDKGNAYAAYYAPSVKGRFTISRDDSKNSIYLQMNSLKTEDTAVYYCHYVHYASASTVLPAFGVDAWGQGTTVTVSS
VL: DIVMTQSPLSLPVTPGEPASISCQMSQELVHMNRNTYLHWYQQKPGQAPRLLIYKVSNRFPGVPDRFSGSGSGTDFTLKISRVEAEDVGVYYCAQGTSVPFTFGQGTKLEIK
notes: Dual-Ig
B6: H183/L072 VL A89H (antibody, name in Kabat numbering, V domains shown)
VH: QVQLVESGGGLVQPGRSLRLSCAASGFTFSNAWMHWVRQAPGKGLEWVAQIKDKGNAYAAYYAPSVKGRFTISRDDSKNSIYLQMNSLKTEDTAVYYCHYVHYASASTVLPAFGVDAWGQGTTVTVSS
VL: DIVMTQSPLSLPVTPGEPASISCQASQELVHMNRNTYLHWYQQKPGQAPRLLIYKVSNRFPGVPDRFSGSGSGTDFTLKISRVEAEDVGVYYCHQGTSVPFTFGQGTKLEIK
notes: Dual-Ig
B7: H183/L072 VL A89D (antibody, name in Kabat numbering, V domains shown)
VH: QVQLVESGGGLVQPGRSLRLSCAASGFTFSNAWMHWVRQAPGKGLEWVAQIKDKGNAYAAYYAPSVKGRFTISRDDSKNSIYLQMNSLKTEDTAVYYCHYVHYASASTVLPAFGVDAWGQGTTVTVSS
VL: DIVMTQSPLSLPVTPGEPASISCQASQELVHMNRNTYLHWYQQKPGQAPRLLIYKVSNRFPGVPDRFSGSGSGTDFTLKISRVEAEDVGVYYCDQGTSVPFTFGQGTKLEIK
notes: Dual-Ig
B8: H183/L072 VL A25N (antibody, name in Kabat numbering, V domains shown)
VH: QVQLVESGGGLVQPGRSLRLSCAASGFTFSNAWMHWVRQAPGKGLEWVAQIKDKGNAYAAYYAPSVKGRFTISRDDSKNSIYLQMNSLKTEDTAVYYCHYVHYASASTVLPAFGVDAWGQGTTVTVSS
VL: DIVMTQSPLSLPVTPGEPASISCQNSQELVHMNRNTYLHWYQQKPGQAPRLLIYKVSNRFPGVPDRFSGSGSGTDFTLKISRVEAEDVGVYYCAQGTSVPFTFGQGTKLEIK
notes: Dual-Ig
B9: H183/L072 VL A89G (antibody, name in Kabat numbering, V domains shown)
VH: QVQLVESGGGLVQPGRSLRLSCAASGFTFSNAWMHWVRQAPGKGLEWVAQIKDKGNAYAAYYAPSVKGRFTISRDDSKNSIYLQMNSLKTEDTAVYYCHYVHYASASTVLPAFGVDAWGQGTTVTVSS
VL: DIVMTQSPLSLPVTPGEPASISCQASQELVHMNRNTYLHWYQQKPGQAPRLLIYKVSNRFPGVPDRFSGSGSGTDFTLKISRVEAEDVGVYYCGQGTSVPFTFGQGTKLEIK
notes: Dual-Ig
B10: H183/L072 VL A89F (antibody, name in Kabat numbering, V domains shown)
VH: QVQLVESGGGLVQPGRSLRLSCAASGFTFSNAWMHWVRQAPGKGLEWVAQIKDKGNAYAAYYAPSVKGRFTISRDDSKNSIYLQMNSLKTEDTAVYYCHYVHYASASTVLPAFGVDAWGQGTTVTVSS
VL: DIVMTQSPLSLPVTPGEPASISCQASQELVHMNRNTYLHWYQQKPGQAPRLLIYKVSNRFPGVPDRFSGSGSGTDFTLKISRVEAEDVGVYYCFQGTSVPFTFGQGTKLEIK
notes: Dual-Ig
B11: H183/L072 VL A89L (antibody, name in Kabat numbering, V domains shown)
VH: QVQLVESGGGLVQPGRSLRLSCAASGFTFSNAWMHWVRQAPGKGLEWVAQIKDKGNAYAAYYAPSVKGRFTISRDDSKNSIYLQMNSLKTEDTAVYYCHYVHYASASTVLPAFGVDAWGQGTTVTVSS
VL: DIVMTQSPLSLPVTPGEPASISCQASQELVHMNRNTYLHWYQQKPGQAPRLLIYKVSNRFPGVPDRFSGSGSGTDFTLKISRVEAEDVGVYYCLQGTSVPFTFGQGTKLEIK
notes: Dual-Ig
B12: H183/L072 VL A89N (antibody, name in Kabat numbering, V domains shown)
VH: QVQLVESGGGLVQPGRSLRLSCAASGFTFSNAWMHWVRQAPGKGLEWVAQIKDKGNAYAAYYAPSVKGRFTISRDDSKNSIYLQMNSLKTEDTAVYYCHYVHYASASTVLPAFGVDAWGQGTTVTVSS
VL: DIVMTQSPLSLPVTPGEPASISCQASQELVHMNRNTYLHWYQQKPGQAPRLLIYKVSNRFPGVPDRFSGSGSGTDFTLKISRVEAEDVGVYYCNQGTSVPFTFGQGTKLEIK
notes: Dual-Ig
B13: H183/L072 VL A89K (antibody, name in Kabat numbering, V domains shown)
VH: QVQLVESGGGLVQPGRSLRLSCAASGFTFSNAWMHWVRQAPGKGLEWVAQIKDKGNAYAAYYAPSVKGRFTISRDDSKNSIYLQMNSLKTEDTAVYYCHYVHYASASTVLPAFGVDAWGQGTTVTVSS
VL: DIVMTQSPLSLPVTPGEPASISCQASQELVHMNRNTYLHWYQQKPGQAPRLLIYKVSNRFPGVPDRFSGSGSGTDFTLKISRVEAEDVGVYYCKQGTSVPFTFGQGTKLEIK
notes: Dual-Ig
B14: H183/L072 VL A89P (antibody, name in Kabat numbering, V domains shown)
VH: QVQLVESGGGLVQPGRSLRLSCAASGFTFSNAWMHWVRQAPGKGLEWVAQIKDKGNAYAAYYAPSVKGRFTISRDDSKNSIYLQMNSLKTEDTAVYYCHYVHYASASTVLPAFGVDAWGQGTTVTVSS
VL: DIVMTQSPLSLPVTPGEPASISCQASQELVHMNRNTYLHWYQQKPGQAPRLLIYKVSNRFPGVPDRFSGSGSGTDFTLKISRVEAEDVGVYYCPQGTSVPFTFGQGTKLEIK
notes: Dual-Ig
B15: H183/L072 VL A25V (antibody, name in Kabat numbering, V domains shown)
VH: QVQLVESGGGLVQPGRSLRLSCAASGFTFSNAWMHWVRQAPGKGLEWVAQIKDKGNAYAAYYAPSVKGRFTISRDDSKNSIYLQMNSLKTEDTAVYYCHYVHYASASTVLPAFGVDAWGQGTTVTVSS
VL: DIVMTQSPLSLPVTPGEPASISCQVSQELVHMNRNTYLHWYQQKPGQAPRLLIYKVSNRFPGVPDRFSGSGSGTDFTLKISRVEAEDVGVYYCAQGTSVPFTFGQGTKLEIK
notes: Dual-Ig
B16: H183/L072 VL A89Q (antibody, name in Kabat numbering, V domains shown)
VH: QVQLVESGGGLVQPGRSLRLSCAASGFTFSNAWMHWVRQAPGKGLEWVAQIKDKGNAYAAYYAPSVKGRFTISRDDSKNSIYLQMNSLKTEDTAVYYCHYVHYASASTVLPAFGVDAWGQGTTVTVSS
VL: DIVMTQSPLSLPVTPGEPASISCQASQELVHMNRNTYLHWYQQKPGQAPRLLIYKVSNRFPGVPDRFSGSGSGTDFTLKISRVEAEDVGVYYCQQGTSVPFTFGQGTKLEIK
notes: Dual-Ig
B17: H183/L072 VL A89I (antibody, name in Kabat numbering, V domains shown)
VH: QVQLVESGGGLVQPGRSLRLSCAASGFTFSNAWMHWVRQAPGKGLEWVAQIKDKGNAYAAYYAPSVKGRFTISRDDSKNSIYLQMNSLKTEDTAVYYCHYVHYASASTVLPAFGVDAWGQGTTVTVSS
VL: DIVMTQSPLSLPVTPGEPASISCQASQELVHMNRNTYLHWYQQKPGQAPRLLIYKVSNRFPGVPDRFSGSGSGTDFTLKISRVEAEDVGVYYCIQGTSVPFTFGQGTKLEIK
notes: Dual-Ig
B18: H183/L072 VL A89M (antibody, name in Kabat numbering, V domains shown)
VH: QVQLVESGGGLVQPGRSLRLSCAASGFTFSNAWMHWVRQAPGKGLEWVAQIKDKGNAYAAYYAPSVKGRFTISRDDSKNSIYLQMNSLKTEDTAVYYCHYVHYASASTVLPAFGVDAWGQGTTVTVSS
VL: DIVMTQSPLSLPVTPGEPASISCQASQELVHMNRNTYLHWYQQKPGQAPRLLIYKVSNRFPGVPDRFSGSGSGTDFTLKISRVEAEDVGVYYCMQGTSVPFTFGQGTKLEIK
notes: Dual-Ig
B19: H183/L072 VL A25Q (antibody, name in Kabat numbering, V domains shown)
VH: QVQLVESGGGLVQPGRSLRLSCAASGFTFSNAWMHWVRQAPGKGLEWVAQIKDKGNAYAAYYAPSVKGRFTISRDDSKNSIYLQMNSLKTEDTAVYYCHYVHYASASTVLPAFGVDAWGQGTTVTVSS
VL: DIVMTQSPLSLPVTPGEPASISCQQSQELVHMNRNTYLHWYQQKPGQAPRLLIYKVSNRFPGVPDRFSGSGSGTDFTLKISRVEAEDVGVYYCAQGTSVPFTFGQGTKLEIK
notes: Dual-Ig
B20: H183/L072 VL A89E (antibody, name in Kabat numbering, V domains shown)
VH: QVQLVESGGGLVQPGRSLRLSCAASGFTFSNAWMHWVRQAPGKGLEWVAQIKDKGNAYAAYYAPSVKGRFTISRDDSKNSIYLQMNSLKTEDTAVYYCHYVHYASASTVLPAFGVDAWGQGTTVTVSS
VL: DIVMTQSPLSLPVTPGEPASISCQASQELVHMNRNTYLHWYQQKPGQAPRLLIYKVSNRFPGVPDRFSGSGSGTDFTLKISRVEAEDVGVYYCEQGTSVPFTFGQGTKLEIK
notes: Dual-Ig

The target in the assay is T1, Human CD137 ECD (human).
T1 construct: entry includes C-terminal His-tag and biotin acceptor peptide; also called human CD137 extracellular domain; 4-1BB
T1 sequence (chain, as listed by the source limits assumed): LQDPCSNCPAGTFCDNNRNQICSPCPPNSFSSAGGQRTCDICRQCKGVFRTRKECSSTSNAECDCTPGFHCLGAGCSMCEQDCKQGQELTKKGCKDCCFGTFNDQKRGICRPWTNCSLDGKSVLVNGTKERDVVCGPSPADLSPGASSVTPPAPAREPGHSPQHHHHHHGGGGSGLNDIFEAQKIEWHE
Briefly: Biacore SPR, vs parent H183/L072.
Regarding B1, the “fold change of affinity” value came to 0.1 fold.

B2: the “fold change of affinity” value was 0.7 fold.

Regarding B3, the “fold change of affinity” value was found to be 1.4 fold.

As for B4, the “fold change of affinity” value was 1.1 fold.

Consider B5, for which the “fold change of affinity” value stood at 0.1 fold.

Turning to B6, the “fold change of affinity” value came out at 0 fold.

Regarding B7, the “fold change of affinity” value worked out at 0 fold.

On to B8, for which the “fold change of affinity” value turned out to be 0.2 fold.

Regarding B9, the “fold change of affinity” value amounted to 0.5 fold.

As for B10, the “fold change of affinity” value is 0 fold.

Turning to B11, the “fold change of affinity” value came out at 0 fold.

B12: the “fold change of affinity” value worked out at 0 fold.

For B13, the “fold change of affinity” value was found to be 0 fold.

For the molecule B14, the “fold change of affinity” value stood at 0 fold.

On to B15, for which the “fold change of affinity” value came to 0.5 fold.

As for B16, the “fold change of affinity” value came to 0 fold.

As for B17, the “fold change of affinity” value was determined as 0 fold.

For the molecule B18, the “fold change of affinity” value was determined as 0 fold.

With B19, the “fold change of affinity” value stood at 0.1 fold.

B20: the “fold change of affinity” value was determined as 0 fold.

The values above are taken from patent publication US20210388087A1 (Chugai, published 2021).
